Data as given in US20160290999A1 (SYSMEX, published 2016).
No end group written: not given here.

Columns and labels:
[1] = molecular target: T1, Human serum albumin (human, UniProt P02768 25-609); test: fluorescence titration of TMR-labelled peptide against HSA, Hill fit (as in Example 1)
T1 construct: Purchased protein used in solution; In the hydrothermal experiments it is heat-aggregated into an insoluble precipitate; also called HSA
Procedure: (§1) Each of the resulting mixtures was subjected to measurement with a spectrophotofluorometer [product name: F-7000, manufactured by Hitachi High-Technologies Corporation] and the fluorescence intensity with an excitation wavelength of 540 nm and a fluorescence wavelength of 580 nm (hereinafter, referred to as “fluorescence intensity A”) was measured.

[2] = molecular target: T1, Human serum albumin; test: Kd as classified from the fluorescence titration; told in Example 4 of the peptides of samples F and G
[3] = molecular target: T1, Human serum albumin; test: fluorescence titration of TMR-labelled peptide against HSA, Hill fit (Example 2, FIG. 6)
Procedure: as §1

B1: TMR-labeled ACTH (1-39) (peptide)
peptide: SYSMEHFRWGKPVGKKRRPVKVYPNAGENESAEAFPLEF
modifications: also: TMR label, site not given here
notes: The free text was followed; also called Adrenocorticotropic hormone (ACTH) (1-39)
Kd [1]: 520 µM

B2: TMR-labeled HSA 599-609 fragment (peptide)
peptide: LVAASQAALGL
modifications: also: TMR label, site not given here
Kd [2]: ≥ 500 µM

B3: TMR-labeled SA21 (peptide)
peptide: DDEWLCGWRPLCIDEILR
modifications: cysteine pairing not given here; also: TMR label, site not given here
notes: The free text was followed; also called TMR-SA21; TMR-labeled SA1
Kd [3]: < 500 µM
